Results from the DeepSol protein solubility set.

Assay: soluble on expression in E. coli; label from the status in PepcDB or PDB records

Sequence	soluble on expression in E. coli
MGSDKIHHHHHHMDNYLAEQILKNLPFTPTQSQDSAIRSLAKYLFDREPYSVFLLRGYAGTGKTQLIASVVQTILEQGADCELLAPTGRAAKVLTTYTRHQAYTIHRQIYQATAAGIEEGGAYRIRRSSGRSTVFIVDESSMIGNESVEPTPFGSGSLLNDLLAYVNETDGCRLILAGDMAQLPPVGSVVSPALDAGVMETSYGLRIHECTLTEVVRQQKESAILSLATSLRRLLSNGISEKIKLNIRDSGDVSAISGTELIEALDASFRTVGMDETIIVSYSNKRALAYNLGIRSQVLYYEEELIRGDRLVVTRNNYRYCDRRDKTDFVANGEIVEILRLGKRYELYGFRFADATISLVEQGREIEARLLLDGLTAETAGLTHAQRQKLYDAVAEDYNSMASIPARRKAIKEDAFFSALEVKYAYAITCHKAQGGQWKHVYVDMGMLSYLPHDEQLCRWLYTAVTRASERLFLVNTPKDMLP	not soluble
MGSDKIHHHHHHMDRKLLRLYQPLNAYSYNSDSLFLYDFSRPFIKNSGAILDIGSGCGILGLLCARDNPLAIVHLVEKDNKMAFCSQKNALKFPNAQVFEGDFLDFNPPILYDIIVCNPPFYALGSIKSKIKGHARHQSELDFASLVAKVKKCLKPKGYFIFCYEALSLCLVIEGLKSVKLTLETLRFVQSFKDKNAHLMLGAARNNSKSALKVLPPLITHHSKNQSDNTKEVLSIYQTCNTYSIKALLN	not soluble
MGSDKIHHHHHHMDTKFSCVGCGGCCTDHHVPLTLLEARQWAADGGNVIVLTEAFLSNGYGVAQNQLTHATRRSTEVNSGSTTAFVAITFAAYNVGRCRNLDEENLCRIYERRPLVCRIYPMEINPHIPLRPETKGCPPESWEQGPDLIVGDTLVDTQLMSLIEQSRQADRDEIAAKQLICQQLGIRTTALKGNGFVAYLPDMNAFAAAIENVANLAGAAPENSDWEFHVAGQHVVDTLQQEGADVTDREPVSYLFIPLQAA	not soluble
MGSDKIHHHHHHMDTQRGSLRGKAHKARLKMTPNGRRQLLLERGAAFSKNRTPGLKHVDRHTIVDSDGLSIHTYMVGHAENATATVVFIHGFTLAAEVYYMQVDYLQTFYPNIKSVLIDARGHGATGQIRPELCTIEGTANDVLAAIHEHAPTGPLILVGHSLGGLTALNLVKRADHSLRKRIVGMVLVATSIESLSTQGLPQVLASPLADNIKNAVEAAPNDAQKFRQYATTFLAPTLATAVFQRDTNDEVIDFHAAMIHETPLDTFVGFFDDLQEHDELDAAPALEGLKGYVLAGELDDVTPISQADRICEVWPGARLQIAEGAGHMLPLEAPGILNNAIGNILDGLG	not soluble
MGSDKIHHHHHHMDYDYIIVGAGAAGLSLAYHLGQSALADQTILIIDPNHTRQNDRTWCFWEVGDGPFEAVVSRRWEHLWLYDKHWSARMAIAPYRYKLIQGIDFYQFVDHWLAQRPNITRLQGSVDRLVELPEGVAAVVGGRQYTARYAFNSVYRPVPTPPGYHTWLQHFKGWVIKTPQPVFDAEAATFMDFRIPQAGDVRFGYVLPFDTCTALVEYTIFSPQLVSQTEYEIGLQRYIAEQLGIDRYEITHVEYGVIPMSDVPLPLRPSPHVLNIGTAGGMSKPSTGYTFQRIQRQTRQIVASLTKEGHPFYRQPLFNRHALMDSILLNVLDAGRTPGHRFFANLFRHNPIQRVLRFLDEETTIAEDIALMSTVEMMPFAIAALAVFWGRMSSLGRREWEMG	not soluble
MGSDKIHHHHHHMDYLDKLTHLAQVRGEINIRCEFQGEWQISHQEKDAGKGIFHLIEQGECWLTLNEKQFHLKEGDVFFLPQNQPHSMHYSANKRADIPTKKSHQGLFELHQIGRGTPDLKMFCGNFYYQQDALLTASMPEYLHINLCDTPIHPLVQLFLQEAQKNDAGTKSVVDALSNVLLIYILRHAIQQNLIEQGILFALQDKRLNTALIAILQQPQNDWHIEQLAELATMSRANFIRIFQQHIGMSPGRFLTKVRLQSAAFLLKQSQQSVLAIALEVGYQSEAHFCKVFKNYYQLSPSQYRKSVSL	not soluble
MGSDKIHHHHHHMECHIDLHNTVIQRRVPRDGRAAKHIGIAVFNGFSLLDTVSIVEAFETANRFAEASRHDAPRYVVRLLSSAGGRIASSSSVFVWTDSVEARGHAHDFHALFIAGGTGVHDAARDGRLLAWLRRTHLRSENVLSIAEGQFLLEAAGFASSAGIGSARGLVPRHYFRRETDPATQREVSSPLESALNLIEADLGTEITCKAAASLAPRASTQFTSVLNRNASGSVSDKIRASAQWLEANGHQPISIDRAAGIAAMSERNFLRRFKAEIGVTPSGYLLYVRLDMSCRLLVETALPVDKIARRCGFGDGGQLARLFRKHMGTTPSEYRNSHRQPHDR	not soluble
MGSDKIHHHHHHMEEIVLFHTNDLHSHFENWPKIRRLVKAKRSLYQKEGKTVVTIDLGDFSDRCHPLTEATDGRANVAIMNTLAYDLVTIGNNEGIGNSKKQLEHLYDQATFEVVLANLEEPKTQTLPDFCQAYKIMTTKEGTKLGFIGLTAPFPLTYNPNGWTIKQVEAVLPQLITEVAPQCDVLILLSHLGIDTDFMIAANYPEIQVILGSHTHHLFKDGEKINHVQLAAAGKYGQYIGEVHLFVDADTKQVTSYAKTIETASLEEQATDAKEIAGYLTEGHRLLQAQQIAQIPETLSTDLRQPHAFITVALKALKEAGQTEAAVLNNGLFLADLPEGIINADQLHEALPHPMHLIKVTLKGSDMSRLIREMEKSRQFLRKFPIRGMGFRGKIFGELCYDGIRFEPNSQTVFWQGKPIQPEQKYTLTTVDHFQFVPFFPTIELVGEVEFLFPDVLRTVVANYLHAHYPIK	not soluble
MGSDKIHHHHHHMEESKELFKDIEKHLLNDVRPSEYLNEQLNKGNLNKYPFTMLSDLVHTEQNKEHHPEGNVWNHTLLVVDKAAENREKSSDKRAFMWGSLLHDIGKAKTTKVRKGKITSYNHDKVGETMSREFLQCFSEDEDFIYKVIKLVRWHMQTLFVVKNMSFADSKNMLKETSLDEIALLSLCDRLGRQPMSNGKIQEEKENVRTFVRKVKELNKV	not soluble
MGSDKIHHHHHHMEFNDQRVRYFFEAARLGGVRAAADRMDIAASAVSRQIRQLEMELGATLFERHRRGFQPTEAGRLLLDYHRKQLSEQEAVLTALRELKGIHRGHVSVVTGGGVISDLIDAIHPFSQRYPQITVGIDIRGTNDIVRAVLEDRAHIGVVFYTAPNPLLRVHRSSIQPLYAVAAPDHPLARAERPIRLEELARHKLALPDVSFGVRQILRDAEKAEQCQLEPAIVTNSFRVMVEYALTGQAATVQPRFSVRRELESGQLQAIPIQQRNLQQAEVHLITHHGRRLSPAAARLLETLAASMPAFRDSAVTP	not soluble
MGSDKIHHHHHHMEFYERAKKYEYKFTDTEDMIIEYMRKNKEEIVKLSIQSLADKFFTVPNTIVRLCKKMEYDGFSQLKNNLKEELKNENKEPKNGFESDIKKTLELIDYEKINKVADIIQKSRSIIVYGIGQNIPLCEILVKEIRGGHDNITYYSQRHEVLHDIGKLGEQDMFFALSLSGETKEVIEAAKTAVNKGCKVVALTHICENQLQQIADISLYCYSTIKQVNGYNISDKVPIMMIMRAIIEQYWLR	not soluble
MGSDKIHHHHHHMEGEYRALNDISLESNVLFFGKESCLPNYFYPGNNVRKNYVIHYILKGKGTFSSANHPSIELKAGDIFILPKGIPCFYKADGKEPWTYLWIGFSGLKIKNILSRSLLLSQRYLHQVQNSHFTDSLLKLFDALHNPDTSTNNDLLIESLIYQTFYYLNSEYPAQNKTNIKSSIRLKTATKYLYDNFTDNNCSIYLLCNKLGVSRSYLYNIFKEGMNLSPQQFLIKLRMEEAKNKLKNSQNSIQEISTSVGYTDTFTFSKAFKKYSGFSPKNYRQIKSSEN	not soluble
MGSDKIHHHHHHMEIGQRFLVQLEETGQYFVNYQDGILIELAFDATVGKQSPAFSDLEHTAAYLEEHLRSHQTQALLLASKIHAYDASPVERITQMISIHSFFSTHRLVHPLNAYSTALLISRLEATDPQLQRTVELYRLAKKSHRFIVSPLLVSFLFLNALRRGEIATIHARIEATYDILKKRFGRSQQTYVTALLLALLPEDDQATYIAQVVQSRNLYRKHGIPLSFHGLLALLGDPRMHQTALEGLADQFRNTPHFKYRKDLVFLTAVRLYLADHPTLHQLFAPFSPSTLDDTSNLLPVYLFPVDLTDTSHATDGGMTDGGFDGGDGGGGGGD	not soluble
